Laboratory results reported in US20090291890A1 (published 2009).
Numbering of substitutions follows the chain as printed. Names may count otherwise. “And” between values parts separate entries of the source, which are not always exact repeats. Equal entries are not always repeated.

T1: Mesyl-dFPR-ACC
T1 sequence (peptide, N-terminal mesyl; D-Phe at position 1 (dF); C-terminal ACC fluorophore): FPR

B1: FVIIa variant Q286R/M298Q/Q366N (enzyme)
chain: ANAFLEELRPGSLERECKEEQCSFEEAREIFKDAERTKLFWISYSDGDQCASSPCQNGGSCKDQLQSYICFCLPAFEGRNCETHKDDQLICVNENGGCEQYCSDHTGTKRSCRCHEGYSLLADGVSCTPTVEYPCGKIPILEKRNASKPQGRIVGGKVCPKGECPWQVLLLVNGAQLCGGTLINTIWVVSAAHCFDKIKNWRNLIAVLGEHDLSEHDGDEQSRRVAQVIIPSTYVPGTTNHDIALLRLHQPVVLTDHVVPLCLPERTFSERTLAFVRFSLVSGWGRLLDRGATALELQVLNVPRLMTQDCLQQSRKVGDSPNITEYMFCAGYSDGSKDSCKGDSGGPHATHYRGTWYLTGIVSWGNGCATVGHFGVYTRVSQYIEWLQKLMRSEPRPGVLLRAPFP
B2: FVIIa variant Q286R/H373F (enzyme)
chain: B1 chain with Q298M, N366Q, H373F
B3: FVIIa variant A51N (enzyme)
chain: B1 chain with A51N, R286Q, Q298M, N366Q
B4: FVIIa variant Q286R/M298Q/H373F (enzyme)
chain: B1 chain with N366Q, H373F
B5: FVIIa variant P321K (enzyme)
chain: B1 chain with R286Q, Q298M, P321K, N366Q
B6: FVIIa variant H257A/M298Q (enzyme)
chain: B1 chain with H257A, R286Q, N366Q
B7: FVIIa variant P321S (enzyme)
chain: B1 chain with R286Q, Q298M, P321S, N366Q
B8: FVIIa variant S222A/M298Q (enzyme)
chain: B1 chain with S222A, R286Q, N366Q
B9: FVIIa variant S119N/L121S (enzyme)
chain: B1 chain with S119N, L121S, R286Q, Q298M, N366Q
B10: FVIIa variant P321Y (enzyme)
chain: B1 chain with R286Q, Q298M, P321Y, N366Q
B11: FVIIa variant M298Q/H373F (enzyme)
chain: B1 chain with R286Q, N366Q, H373F
B12: FVIIa variant T239N (enzyme)
chain: B1 chain with T239N, R286Q, Q298M, N366Q
B13: FVIIa variant Q286R/Q366V (enzyme)
chain: B1 chain with Q298M, N366V
B14: FVIIa variant P321E (enzyme)
chain: B1 chain with R286Q, Q298M, P321E, N366Q

Assays:
Mesyl-dFPR-ACC = molecular target: T1, Mesyl-dFPR-ACC
[1] = molecular target: Factor X (Homo sapiens (Human)) (UniProt P00742)
[2] = molecular target: Factor X (FX) (Homo sapiens (Human)) (UniProt P00742)
Chain of Factor X (FX) (Homo sapiens (Human)) (P00742 41-488 limits assumed): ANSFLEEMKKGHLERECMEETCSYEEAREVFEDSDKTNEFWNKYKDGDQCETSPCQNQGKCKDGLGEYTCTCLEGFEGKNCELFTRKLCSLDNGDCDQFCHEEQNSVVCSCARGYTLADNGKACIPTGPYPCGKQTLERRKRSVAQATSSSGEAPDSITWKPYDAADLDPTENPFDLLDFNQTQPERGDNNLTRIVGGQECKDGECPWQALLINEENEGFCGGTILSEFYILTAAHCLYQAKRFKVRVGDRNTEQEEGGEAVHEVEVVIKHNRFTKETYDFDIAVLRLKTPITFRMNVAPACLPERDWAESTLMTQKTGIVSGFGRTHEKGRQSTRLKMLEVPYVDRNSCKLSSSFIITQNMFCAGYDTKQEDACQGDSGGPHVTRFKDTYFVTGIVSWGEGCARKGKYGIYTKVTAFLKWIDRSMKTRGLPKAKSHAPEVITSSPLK

Molecule	Activity (µmol/sec/µmol), specific activity for mesyl-dFPR-ACC (µmol/sec/µmol) (Mesyl-dFPR-ACC)	kcat/KM (M^-1s^-1), TF-dependent assay [1]	kcat/KM, TF-independent assay [1]	kcat/KM, TF-dependent assay [1]	kcat/KM, TF-Dependent Indirect Assay [2]
S52A/S60A/S222A/H257A/Q286R/M298Q-FVIIa (enzyme)	0.98	2.49e+08 M⁻¹ s⁻¹	116 M⁻¹ s⁻¹	–	–
S52A/S60A/V158D/E296V/M298Q-FVIIa (enzyme)	2.56	2e+08 M⁻¹ s⁻¹	1760 M⁻¹ s⁻¹	–	–
Gla swap FIX/Q286R/M298Q-FVIIa (enzyme)	1.53	2.55e+08 M⁻¹ s⁻¹ and 2.3e+08 M⁻¹ s⁻¹	673 M⁻¹ s⁻¹ and 678 M⁻¹ s⁻¹	–	–
Gla swapFIX/Q366V-FVIIa (enzyme)	2.82	9.11e+07 M⁻¹ s⁻¹	90 M⁻¹ s⁻¹	–	–
A122N/G124S/A175S/Q286R/M298Q/H373F-FVIIa (enzyme)	2.71	–	–	8.39e+07 M⁻¹ s⁻¹	–
T128N/P129A/S222A-FVIIa (enzyme)	2.7	6.25e+07 M⁻¹ s⁻¹	4.8 M⁻¹ s⁻¹	–	–
Gla swap FIX/T128N/P129A/S222A/Q286R-FVIIa (enzyme)	0.53	1.47e+08 M⁻¹ s⁻¹ and 1.43e+08 M⁻¹ s⁻¹	15.5 M⁻¹ s⁻¹ and 21.3 M⁻¹ s⁻¹	–	–
Gla swap FIX/Q286R/S222A/H257S-FVIIa (enzyme)	0.49	8.53e+07 M⁻¹ s⁻¹	–	–	–
T128N/P129A/Q286R/H373F-FVIIa (enzyme)	2.31	6.91e+07 M⁻¹ s⁻¹	6.6 M⁻¹ s⁻¹	–	–
T128N/P129A/A175S/Q286R/M298Q-FVIIa (enzyme)	2.02	–	–	7.21e+07 M⁻¹ s⁻¹	–
Gla swap FIX/T128N/P129A/Q286R/M298Q-FVIIa (enzyme)	0.78	2.11e+08 M⁻¹ s⁻¹ and 1.99e+08 M⁻¹ s⁻¹	–	–	–
Gla swap FIX/S52A/S60A/S222A/Q286R-FVIIa (enzyme)	0.44	7.24e+07 M⁻¹ s⁻¹	2.9 M⁻¹ s⁻¹	–	–
Gla swap FIX/T239V/Q286R/M298Q-FVIIa (enzyme)	1.13	2.53e+08 M⁻¹ s⁻¹ and 1.79e+08 M⁻¹ s⁻¹	–	–	–
A122N/G124S/A175S/Q286R/M298Q-FVIIa (enzyme)	3.03	–	–	7.43e+07 M⁻¹ s⁻¹	–
T128N/P129A/Q286R/M298Q-FVIIa (enzyme)	1.8	1.86e+08 M⁻¹ s⁻¹ and 1.5e+08 M⁻¹ s⁻¹	81.6 M⁻¹ s⁻¹ and 212 M⁻¹ s⁻¹	–	–
Gla swap FIX/S222A/T239V/Q286R-FVIIa (enzyme)	0.66	2.03e+08 M⁻¹ s⁻¹ and 9.94e+07 M⁻¹ s⁻¹	–	–	–
T128N/P129A/A175S/S222A-FVIIa (enzyme)	3.19	1.72e+07 M⁻¹ s⁻¹	1.9 M⁻¹ s⁻¹	–	–
{Gla swap FIX/M19K}/Q286R/M298Q-FVIIa (enzyme)	1.26	1.41e+08 M⁻¹ s⁻¹	512 M⁻¹ s⁻¹	–	–
T128N/P129A/A175S/Q366V-FVIIa (enzyme)	3.4	3.38e+07 M⁻¹ s⁻¹	3.4 M⁻¹ s⁻¹	–	–
Gla swap FIX/S222A/Q286R/H373F-FVIIa (enzyme)	1.37	1.22e+08 M⁻¹ s⁻¹	81.2 M⁻¹ s⁻¹	–	–

Molecule	Activity (µmol/sec/µmol), specific activity for mesyl-dFPR-ACC (µmol/sec/µmol) (Mesyl-dFPR-ACC)	kcat/KM (M^-1s^-1), TF-dependent assay [1]	kcat/KM, TF-independent assay [1]	kcat/KM, TF-dependent assay [1]	kcat/KM, TF-Dependent Indirect Assay [2]
A122N/G124S/A175S/S222A-FVIIa (enzyme)	2.68	2.08e+07 M⁻¹ s⁻¹	–	–	–
Q286R-FVIIa (enzyme)	1.24	8.06e+07 M⁻¹ s⁻¹	10.3 M⁻¹ s⁻¹	–	–
Gla swap FIX/S222A/Q286R/M298Q/H373F-FVIIa (enzyme)	1.92	2.84e+08 M⁻¹ s⁻¹	192 M⁻¹ s⁻¹	–	–
WT FVIIa (enzyme)	2.4	–	–	–	–
WT (NovoSeven®) FVIIa (enzyme)	2.31	–	–	–	–
B1	–	–	–	–	1.04e+08 M⁻¹ s⁻¹
B2	–	–	–	–	9.08e+07 M⁻¹ s⁻¹
B3	–	–	–	–	1.02e+08 M⁻¹ s⁻¹
B4	–	–	–	–	1.51e+08 M⁻¹ s⁻¹
B5	–	–	–	–	3.43e+07 M⁻¹ s⁻¹
B6	–	–	–	–	1.28e+08 M⁻¹ s⁻¹
B7	–	–	–	–	5.53e+07 M⁻¹ s⁻¹
B8	–	–	–	–	7.13e+07 M⁻¹ s⁻¹
B9	–	–	–	–	5.75e+07 M⁻¹ s⁻¹
B10	–	–	–	–	4.48e+07 M⁻¹ s⁻¹
B11	–	–	–	–	8.49e+07 M⁻¹ s⁻¹
B12	–	–	–	–	1.64e+07 M⁻¹ s⁻¹
B13	–	–	–	–	7.92e+07 M⁻¹ s⁻¹
B14	–	–	–	–	5.59e+07 M⁻¹ s⁻¹
